{"source": "patent US20230057987A1", "about": "(published 2023)", "key": {"[1]": {"target": "CT45-IP antigenic peptide (…) in complex with HLA-A*02 presented on cells (peptide-loaded T2 cells; NCIH1703 and A375 tumor cells) (human)", "assay": "cell-based or functional assay"}, "[2]": {"target": "T1, CT45 (CT45A1, A2, A3, A5 to A10); CT45-IP peptide on HLA-A*02:01 (human)", "T1 peptide": "KIFEMLEGV", "assay": "luciferase release, 24 h, 1:1; CD8+ T cells with TCR mRNA, T2 cells with titrated peptide; full-length, on cells"}, "[3]": {"target": "T1, CT45 (CT45A1, A2, A3, A5 to A10); …", "assay": "CT45-IP-HLA-A*02 dextramer on T cells with TCR mRNA; TCR found by tetramer sorting; full-length, on cells"}, "[4]": {"target": "CT45-IP-HLA-A*02 dextramer (human)", "assay": "flow cytometry, dextramer staining of TCR-mRNA electroporated T cells, gated on CD3+"}, "[5]": {"target": "T2, similar peptide SP-05-0009, source protein not stated peptide on HLA-A*02:01 (human)", "T2 peptide": "KIIDLLPKV", "assay": "killing"}, "[6]": {"target": "T3, similar peptide SP-05-0006, source protein not stated peptide on HLA-A*02:01 (human)", "T3 peptide": "KIAELLENV", "assay": "killing"}, "[7]": {"target": "T4, CT45-IP alanine variant, position 6 peptide on HLA-A*02:01 (human)", "T4 peptide": "KIFEMAEGV", "assay": "killing"}, "[8]": {"target": "T5, similar peptide SP-05-0008, source protein not stated peptide on HLA-A*02:01 (human)", "T5 peptide": "KILDELEKV", "assay": "killing"}, "[9]": {"target": "T6, similar peptide SP-05-0005, source protein not stated peptide on HLA-A*02:01 (human)", "T6 peptide": "KIEEFLEAV", "assay": "killing"}, "[10]": {"target": "T7, similar peptide SP-05-0002, source protein not stated peptide on HLA-A*02:01 (human)", "T7 peptide": "KIFSGLLKV", "assay": "killing"}, "[11]": {"target": "T8, CT45-IP alanine variant, position 8 peptide on HLA-A*02:01 (human)", "T8 peptide": "KIFEMLEAV", "assay": "killing"}, "[12]": {"target": "T9, similar peptide SP-05-0010, source protein not stated peptide on HLA-A*02:01 (human)", "T9 peptide": "RIFETVNSV", "assay": "killing"}, "[13]": {"target": "T10, CT45-IP alanine variant, position 7 peptide on HLA-A*02:01 (human)", "T10 peptide": "KIFEMLAGV", "assay": "killing"}, "[14]": {"target": "T11, similar peptide SP-05-0001, source protein not stated peptide on HLA-A*02:01 (human)", "T11 peptide": "HIMEHLEGV", "assay": "killing"}, "[15]": {"target": "T12, similar peptide SP-05-0003, source protein not stated peptide on HLA-A*02:01 (human)", "T12 peptide": "KVTEMLVNV", "assay": "killing"}, "[16]": {"target": "T13, similar peptide SP-05-0007, source protein not stated peptide on HLA-A*02:01 (human)", "T13 peptide": "KIFPALCTV", "assay": "killing"}, "[17]": {"target": "T14, similar peptide SP-05-0004, source protein not stated peptide on HLA-A*02:01 (human)", "T14 peptide": "KIWEWLVGV", "assay": "killing"}, "[18]": {"target": "T15, CT45-IP alanine variant, position 3 peptide on HLA-A*02:01 (human)", "T15 peptide": "KIAEMLEGV", "assay": "killing"}, "[19]": {"target": "T16, CT45-IP alanine variant, position 1 peptide on HLA-A*02:01 (human)", "T16 peptide": "AIFEMLEGV", "assay": "killing"}, "[20]": {"target": "T17, CT45-IP alanine variant, position 4 peptide on HLA-A*02:01 (human)", "T17 peptide": "KIFAMLEGV", "assay": "killing"}}}
{"binder": "TCR-14 (TCR, V domains shown) Valpha: QKITQTQPGMFVQEKEAVTLDCTYDTSDQSYGLFWYKQPSSGEMIFLIYQGSYDEQNATEGRYSLNFQKARKSANLVISASQLGDSAMYFCAINGLPGSARQLTFGSGTQLTVLP Vbeta: GVAQSPRYKIIEKRQSVAFWCNPISGHATLYWYQQILGQGPKLLIQFQNNGVVDDSQLPKDRFSAERLKGVDSTLKIQPAKLEDSAVYLCASSRFVATGTSPLHFGNGTRLTVT", "values": [{"measurement": "EC50, half maximal killing capacity (functional avidity; CT45-IP peptide titration on T2 cells, luciferase release)", "setting": "[1]", "value": 17.7, "unit": "nM"}, {"measurement": "EC50 of peptide", "setting": "[2]", "value": 17.7, "unit": "nM"}, {"measurement": "dextramer-positive events", "setting": "[3]", "value": 11.6, "unit": "%"}, {"measurement": "surface expression, % positive events by CT45-IP-HLA-A2*02 dextramer staining", "setting": "[4]", "value": 11.6, "unit": "%"}, {"measurement": "binding result", "setting": "[5]", "value": "no recognition"}, {"measurement": "binding result", "setting": "[6]", "value": "no recognition"}, {"measurement": "binding result", "setting": "[7]", "value": "recognises"}, {"measurement": "binding result", "setting": "[8]", "value": "no recognition"}, {"measurement": "binding result", "setting": "[9]", "value": "no recognition"}, {"measurement": "binding result", "setting": "[10]", "value": "no recognition"}, {"measurement": "binding result", "setting": "[11]", "value": "recognises"}, {"measurement": "binding result", "setting": "[12]", "value": "no recognition"}, {"measurement": "binding result", "setting": "[13]", "value": "recognises"}, {"measurement": "binding result", "setting": "[14]", "value": "no recognition"}, {"measurement": "binding result", "setting": "[15]", "value": "no recognition"}, {"measurement": "binding result", "setting": "[16]", "value": "no recognition"}, {"measurement": "binding result", "setting": "[17]", "value": "no recognition"}]}
{"binder": "TCR-10 (TCR, V domains shown) Valpha: QNIDQPTEMTATEGAIVQINCTYQTSGFNGLFWYQQHAGEAPTFLSYNVLDGLEEKGRFSSFLSRSKGYSYLLLKELQMKDSASYLCAVPAPYTGTASKLTFGTGTRLQVTL Vbeta: GVTQTPKFQVLKTGQSMTLQCAQDMNHNSMYWYRQDPGMGLRLIYYSASEGTTDKGEVPNGYNVSRLNKREFSLRLESAAPSQTSVYFCASSEGYSTYNEQFFGPGTRLTVL", "values": [{"measurement": "EC50, half maximal killing capacity (functional avidity; CT45-IP peptide titration on T2 cells, luciferase release)", "setting": "[1]", "value": 8.75, "unit": "nM"}, {"measurement": "EC50 of peptide", "setting": "[2]", "value": 8.75, "unit": "nM"}, {"measurement": "dextramer-positive events", "setting": "[3]", "value": 52.8, "unit": "%"}, {"measurement": "surface expression, % positive events by CT45-IP-HLA-A2*02 dextramer staining", "setting": "[4]", "value": 52.8, "unit": "%"}, {"measurement": "binding result", "setting": "[5]", "value": "no recognition"}, {"measurement": "binding result", "setting": "[18]", "value": "recognises"}, {"measurement": "binding result", "setting": "[6]", "value": "no recognition"}, {"measurement": "binding result", "setting": "[19]", "value": "recognises"}, {"measurement": "binding result", "setting": "[8]", "value": "no recognition"}, {"measurement": "binding result", "setting": "[9]", "value": "no recognition"}, {"measurement": "binding result", "setting": "[10]", "value": "no recognition"}, {"measurement": "binding result", "setting": "[11]", "value": "recognises"}, {"measurement": "binding result", "setting": "[12]", "value": "no recognition"}, {"measurement": "binding result", "setting": "[20]", "value": "recognises"}, {"measurement": "binding result", "setting": "[14]", "value": "no recognition"}, {"measurement": "binding result", "setting": "[15]", "value": "no recognition"}, {"measurement": "binding result", "setting": "[16]", "value": "no recognition"}, {"measurement": "binding result", "setting": "[17]", "value": "no recognition"}]}
{"binder": "TCR-8 (TCR, V domains shown) Valpha: QKVTQAQTEISVVEKEDVTLDCVYETRDTTYYLFWYKQPPSGELVFLIRRNSFDEQNEISGRYSWNFQKSTSSFNFTITASQVVDSAVYFCALSGRGSGTYKYIFGTGTRLKVLA Vbeta: GVIQSPRHLIKEKRETATLKCYPIPRHDTVYWYQQGPGQDPQFLISFYEKMQSDKGSIPDRFSAQQFSDYHSELNMSSLELGDSALYFCASSAGTSYNEQFFGPGTRLTVL", "values": [{"measurement": "EC50, half maximal killing capacity (functional avidity; CT45-IP peptide titration on T2 cells, luciferase release)", "setting": "[1]", "value": 6.52, "unit": "nM"}, {"measurement": "EC50 of peptide", "setting": "[2]", "value": 6.52, "unit": "nM"}, {"measurement": "dextramer-positive events", "setting": "[3]", "value": 60.7, "unit": "%"}, {"measurement": "surface expression, % positive events by CT45-IP-HLA-A2*02 dextramer staining", "setting": "[4]", "value": 60.7, "unit": "%"}, {"measurement": "binding result", "setting": "[5]", "value": "no recognition"}, {"measurement": "binding result", "setting": "[18]", "value": "recognises"}, {"measurement": "binding result", "setting": "[6]", "value": "no recognition"}, {"measurement": "binding result", "setting": "[7]", "value": "recognises"}, {"measurement": "binding result", "setting": "[19]", "value": "recognises"}, {"measurement": "binding result", "setting": "[8]", "value": "no recognition"}, {"measurement": "binding result", "setting": "[9]", "value": "no recognition"}, {"measurement": "binding result", "setting": "[10]", "value": "no recognition"}, {"measurement": "binding result", "setting": "[11]", "value": "recognises"}, {"measurement": "binding result", "setting": "[12]", "value": "no recognition"}, {"measurement": "binding result", "setting": "[20]", "value": "recognises"}, {"measurement": "binding result", "setting": "[14]", "value": "no recognition"}, {"measurement": "binding result", "setting": "[15]", "value": "no recognition"}, {"measurement": "binding result", "setting": "[16]", "value": "no recognition"}, {"measurement": "binding result", "setting": "[17]", "value": "no recognition"}]}
